Key:
[1] = target: His6-CsuA/B (N-terminal donor strand sequence replaced by a His6-tag); conditions: parent: est. 1.0; read off a plot
[2] = target: His-tagged EcpB (wild type) (Escherichia coli) (UniProt P77188); assay: SEC

Substance	ratio to parent [1]	stoichiometry N [2]
CsuC (wild type, without tag) R89A	0.15	
CsuC (wild type, without tag) R89A; Y196F	0.02	
CsuC (wild type, without tag) R174A	0.5	
CsuC (wild type, without tag) Y196F	0.13	
EcpA with a Trp11Ala mutation (from UniProt P0AAA3 23-195) (natural protein)		1
